Ends that are not written are not given here.
What was measured:
[1] = biological target: T1, C113T109N biotin labeled HCV core peptide (hepatitis C virus, also: biotin labeled, position not given here); test: EIA; Ab 62.5 ng/mL captured on anti-mouse Fc; bt-peptide 500 ng/mL
T1 peptide: RGSRPSWGPND

[2] = biological target: T2, Mut1T110N biotin labeled HCV core peptide (hepatitis C virus, biotin labeled); test: as above
T2 peptide: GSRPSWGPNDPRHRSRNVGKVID

[3] = biological target: T3, WT1STHV biotin labeled HCV core peptide (hepatitis C virus, biotin labeled); test: as above
T3 peptide: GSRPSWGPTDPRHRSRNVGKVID

[4] = biological target: T4, Mut6T110S biotin labeled HCV core peptide (hepatitis C virus); test: as above
[5] = biological target: T5, C113WT biotin labeled HCV core peptide (hepatitis C virus, also: biotin labeled, position not given here); test: as above
T5 peptide: RGSRPSWGPTD

[6] = biological target: T2, Mut1T110N biotin labeled HCV core …; test: EIA; Ab 2000 ng/mL captured on anti-mouse Fc; bt-peptide 500 ng/mL
[7] = biological target: T5, C113WT biotin labeled HCV core peptide; test: as above
[8] = biological target: T1, C113T109N biotin labeled HCV core …; test: EIA; Ab 7.813 ng/mL captured on anti-mouse Fc; bt-peptide 500 ng/mL
[9] = biological target: T2, Mut1T110N biotin labeled HCV core …; test: as above
[10] = biological target: T3, WT1STHV biotin labeled HCV core peptide; test: as above
[11] = biological target: T4, Mut6T110S biotin labeled HCV core …; test: as above
[12] = biological target: T5, C113WT biotin labeled HCV core peptide; test: as above
[13] = biological target: T1, C113T109N biotin labeled HCV core …; test: EIA; Ab 0.977 ng/mL captured on anti-mouse Fc; bt-peptide 500 ng/mL
[14] = biological target: T2, Mut1T110N biotin labeled HCV core …; test: as above
[15] = biological target: T3, WT1STHV biotin labeled HCV core peptide; test: as above
[16] = biological target: T4, Mut6T110S biotin labeled HCV core …; test: as above
[17] = biological target: T5, C113WT biotin labeled HCV core peptide; test: as above
[18] = biological target: T1, C113T109N biotin labeled HCV core …; test: EIA; Ab 1000 ng/mL captured on anti-mouse Fc; bt-peptide 500 ng/mL
[19] = biological target: T2, Mut1T110N biotin labeled HCV core …; test: as above
[20] = biological target: T3, WT1STHV biotin labeled HCV core peptide; test: as above
[21] = biological target: T4, Mut6T110S biotin labeled HCV core …; test: as above
[22] = biological target: T5, C113WT biotin labeled HCV core peptide; test: as above
[23] = biological target: T1, C113T109N biotin labeled HCV core …; test: EIA; Ab 125 ng/mL captured on anti-mouse Fc; bt-peptide 500 ng/mL
[24] = biological target: T2, Mut1T110N biotin labeled HCV core …; test: as above
[25] = biological target: T3, WT1STHV biotin labeled HCV core peptide; test: as above
[26] = biological target: T4, Mut6T110S biotin labeled HCV core …; test: as above
[27] = biological target: T5, C113WT biotin labeled HCV core peptide; test: as above

B1: HCV Neo4 monoclonal antibody (antibody, V domains shown)
VH: QIQLKESGPAVIKPSQSLSLTCIVSGFSITSSVYCWQWIRQPPGKGLEWMGRICYDGSVDYSPSITSRGTISRDTSLNKVFFQLSSVTNEDTAMYYCSRENHIDYYDTTYPSFDVWGAGTTVTVSS
VL: DIVLTQSPASLIVSLGQRATISCRASKSVNEYGYTYMHWYQQKPGLPPKLLIYLASNLDSGVPARFSGSGSGTDFTLNIHPVEEEDAATYYCQHSRELPYTFGGGTKLEIKR
signal at 492 nm [1]: 0.111 OD 492 nm | signal at 492 nm [2]: 0.139 OD 492 nm | signal at 492 nm [3]: 1.85 OD 492 nm | signal at 492 nm [4]: 1.11 OD 492 nm | signal at 492 nm [5]: 0.0626 OD 492 nm | signal at 492 nm [6]: 0.0882 OD 492 nm | signal at 492 nm [7]: 0.0766 OD 492 nm | signal at 492 nm [8]: 0.0751 OD 492 nm | signal at 492 nm [9]: 0.0729 OD 492 nm | signal at 492 nm [10]: 1.04 OD 492 nm | signal at 492 nm [11]: 0.132 OD 492 nm | signal at 492 nm [12]: 0.0731 OD 492 nm | signal at 492 nm [13]: 0.0784 OD 492 nm | signal at 492 nm [14]: 0.0619 OD 492 nm | signal at 492 nm [15]: 0.22 OD 492 nm | signal at 492 nm [16]: 0.0644 OD 492 nm | signal at 492 nm [17]: 0.0584 OD 492 nm | signal at 492 nm [18]: 0.0591 OD 492 nm | signal at 492 nm [19]: 0.0678 OD 492 nm | signal at 492 nm [20]: 2 OD 492 nm | signal at 492 nm [21]: 1.17 OD 492 nm | signal at 492 nm [22]: 0.222 OD 492 nm | signal at 492 nm [23]: 0.0858 OD 492 nm | signal at 492 nm [24]: 0.204 OD 492 nm | signal at 492 nm [25]: 1.93 OD 492 nm | signal at 492 nm [26]: 1.27 OD 492 nm | signal at 492 nm [27]: 0.0599 OD 492 nm
